These are literature values, as cited in PMC10419064.

For the series, the target named is Cardiac troponin I switch peptide (Homo sapiens) (UniProt P19429).

For “Cardiac troponin C regulatory N-domain (from UniProt P63316)”, the Kd is less than 50 µM.

By Kd is commonly meant the free concentration of one partner at which half of the binding sites on the other are occupied at equilibrium, for simple one-to-one binding.
